Assay results: publication PMC10786891, “Massively parallel profiling of RNA-targeting CRISPR-Cas13d”
Numbering of substitutions follows the chain as printed.

T1: EsCas13d, nuclease-dead (Eubacterium siraeum, UniProt B0MS50, R295A;H300A;R849A;H854A)
T1 sequence: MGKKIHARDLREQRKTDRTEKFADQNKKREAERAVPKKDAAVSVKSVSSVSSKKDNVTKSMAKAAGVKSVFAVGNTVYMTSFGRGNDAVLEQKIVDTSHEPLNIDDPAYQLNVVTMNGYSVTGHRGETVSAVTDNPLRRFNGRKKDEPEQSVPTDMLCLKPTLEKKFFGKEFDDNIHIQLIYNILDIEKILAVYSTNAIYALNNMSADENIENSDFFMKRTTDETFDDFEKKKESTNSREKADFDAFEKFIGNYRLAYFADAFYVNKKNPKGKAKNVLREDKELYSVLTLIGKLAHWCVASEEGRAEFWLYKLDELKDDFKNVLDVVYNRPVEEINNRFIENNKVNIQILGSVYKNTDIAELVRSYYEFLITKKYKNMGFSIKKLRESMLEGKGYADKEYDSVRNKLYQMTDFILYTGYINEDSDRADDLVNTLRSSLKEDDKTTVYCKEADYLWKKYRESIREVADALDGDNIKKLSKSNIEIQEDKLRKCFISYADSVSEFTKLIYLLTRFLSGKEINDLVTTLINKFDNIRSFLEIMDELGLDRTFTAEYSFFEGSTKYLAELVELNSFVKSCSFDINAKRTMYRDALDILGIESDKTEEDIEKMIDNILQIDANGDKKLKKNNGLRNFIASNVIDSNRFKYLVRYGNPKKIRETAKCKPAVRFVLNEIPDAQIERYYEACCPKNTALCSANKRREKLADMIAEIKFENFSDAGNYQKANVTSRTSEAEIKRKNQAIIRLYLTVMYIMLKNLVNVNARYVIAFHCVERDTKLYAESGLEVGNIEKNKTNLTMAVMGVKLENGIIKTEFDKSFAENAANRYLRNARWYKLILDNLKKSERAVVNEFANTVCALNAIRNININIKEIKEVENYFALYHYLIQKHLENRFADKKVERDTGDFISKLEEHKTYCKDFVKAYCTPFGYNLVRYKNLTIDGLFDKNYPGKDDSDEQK

B1: target 1 MT 5'PFS AAC 3'PFS ACC (mixed)
RNA 1: CACCCGUGCAAAAAUGCAGGGGUCUAAAACUGAGCGGAUAACCUCUCUAUGG
RNA 2: GGGAAUGGAUCCACAUCUACGAAUUCAACCCAUAGAGAGGUUAUCCGCUCAACCAGAUCGGAAGAGCACACGU
B2: target 1 MT 5'PFS GUU 3'PFS CAA (mixed)
RNA 1: B1 RNA 1
RNA 2: B1 RNA 2 with A27G, A28U, C29U, A52C, C53A, C54A
B3: target 1 MT 5'PFS GAC 3'PFS UCA (mixed)
RNA 1: B1 RNA 1
RNA 2: B1 RNA 2 with A27G, A52U, C54A
B4: target 1 del8,del22 (mixed)
RNA 1: B1 RNA 1
RNA 2: GGGAAUGGAUCCACAUCUACGAAUUCGUACAUAGAGAGGUUACCGCUCACCGAGAUCGGAAGAGCACACGU
B5: target 1 MT 5'PFS CCA 3'PFS CAG (mixed)
RNA 1: B1 RNA 1
RNA 2: B1 RNA 2 with A27C, A28C, C29A, A52C, C53A, C54G
B6: target 1 MT 5'PFS UAA 3'PFS ACU (mixed)
RNA 1: B1 RNA 1
RNA 2: B1 RNA 2 with A27U, C29A, C54U
B7: target 1 MT 5'PFS GUU 3'PFS CAC (mixed)
RNA 1: B1 RNA 1
RNA 2: B1 RNA 2 with A27G, A28U, C29U, A52C, C53A
B8: target 1 MT 5'PFS GGG 3'PFS CGG (mixed)
RNA 1: B1 RNA 1
RNA 2: B1 RNA 2 with A27G, A28G, C29G, A52C, C53G, C54G
B9: target 1 MT 5'PFS GAC 3'PFS AAA (mixed)
RNA 1: B1 RNA 1
RNA 2: B1 RNA 2 with A27G, C53A, C54A
B10: target 1 MT 5'PFS UAA 3'PFS ACA (mixed)
RNA 1: B1 RNA 1
RNA 2: B1 RNA 2 with A27U, C29A, C54A
B11: target 1 MT 5'PFS GGG 3'PFS CGC (mixed)
RNA 1: B1 RNA 1
RNA 2: B1 RNA 2 with A27G, A28G, C29G, A52C, C53G
B12: target 1 MT 5'PFS GAC 3'PFS UCC (mixed)
RNA 1: B1 RNA 1
RNA 2: B1 RNA 2 with A27G, A52U
B13: target 1 MT 5'PFS GAC 3'PFS UCU (mixed)
RNA 1: B1 RNA 1
RNA 2: B1 RNA 2 with A27G, A52U, C54U
B14: target 1 MT 5'PFS CAA 3'PFS AUC (mixed)
RNA 1: B1 RNA 1
RNA 2: B1 RNA 2 with A27C, C29A, C53U
B15: target 1 MT 5'PFS UAA 3'PFS ACG (mixed)
RNA 1: B1 RNA 1
RNA 2: B1 RNA 2 with A27U, C29A, C54G
B16: target 1 MT 5'PFS CCA 3'PFS CAU (mixed)
RNA 1: B1 RNA 1
RNA 2: B1 RNA 2 with A27C, A28C, C29A, A52C, C53A, C54U
B17: target 1 MT 5'PFS GAC 3'PFS UCG (mixed)
RNA 1: B1 RNA 1
RNA 2: B1 RNA 2 with A27G, A52U, C54G
B18: target 1 MT 5'PFS CAA 3'PFS AUA (mixed)
RNA 1: B1 RNA 1
RNA 2: B1 RNA 2 with A27C, C29A, C53U, C54A
B19: target 1 MT 5'PFS CCA 3'PFS CAC (mixed)
RNA 1: B1 RNA 1
RNA 2: B1 RNA 2 with A27C, A28C, C29A, A52C, C53A

target: T1, EsCas13d, nuclease-dead; test: crRNA (strand 1, pre-loaded); Mg2+; 40 mM Tris-HCl pH 7.5, 150 mM NaCl, 6 mM MgCl2, 1 mM DTT, 0.1% Tween-20, 0.2 mg/ml BSA; 25 C; 10 min per concentration, then washed; settings: tags: His6-TwinStrep-SUMO cleaved; N-terminal SNAP kept (SNAP-Surface 488); label: 3' end held by stalled T7 RNA polymerase

Q: With B1 as the binder, how does the Kd read?
A: Its Kd is about 43 nM.

Q: For B2, which Kd is on record?
A: The Kd was 56.5 ± 22.5 nM.

Q: B3 was tested. Which Kd did it give?
A: The Kd was 16.6 ± 3.5 nM.

Q: For B4, which Kd is on record?
A: The Kd was 32.9 ± 1.7 nM.

Q: How did the Kd turn out when B5 was run?
A: Its Kd is 4.25 ± 1.3 nM.

Q: Which Kd does the source give for B6 here?
A: The Kd was 29 ± 7 nM.

Q: B7 was tested. Which Kd did it give?
A: The Kd was 22.5 ± 9 nM.

Q: How did the Kd turn out when B8 was run?
A: Its Kd is 37.5 ± 8 nM.

Q: B9 was tested. Which Kd did it give?
A: Its Kd is about 51 nM.

Q: With B10 as the binder, how does the Kd read?
A: Its Kd is 43.5 ± 17.5 nM.

Q: How did the Kd turn out when B11 was run?
A: Its Kd is 64 ± 30 nM.

Q: For B12, which Kd is on record?
A: The Kd was 23 ± 9.3 nM.

Q: B13 was tested. Which Kd did it give?
A: Its Kd is 12.8 ± 4.8 nM.

Q: For B14, which Kd is on record?
A: Its Kd is about 32.5 nM.

Q: With B15 as the binder, how does the Kd read?
A: Its Kd is 25 ± 4.5 nM.

Q: For B16, which Kd is on record?
A: The Kd was 6.55 ± 2.8 nM.

Q: With B17 as the binder, how does the Kd read?
A: The Kd was 13.2 ± 1.9 nM.

Q: B18 was tested. Which Kd did it give?
A: Its Kd is 17.5 ± 7.5 nM.

Q: With B19 as the binder, how does the Kd read?
A: Its Kd is about 9.5 nM.
